Laboratory results: publication PMC12225019

Target: TRIM21 (tripartite motif-containing 21) (UniProt P19474)
Assay: co-IP, immunoblot
Details: reference: HMGA2 wild type; sites S105

HMGA2 (high mobility group protein A2) (from UniProt P52926) HMGA2 S105A
binding against the reference: weaker
